Drawing on article PMC4575112, “Serine 363 of a Hydrophobic Region of Archaeal Ribulose 1,5-Bisphosphate Carboxylase/Oxygenase from Archaeoglobus fulgidus and Thermococcus kodakaraensis Affects CO2/O2 Substrate Specificity and Oxygen Sensitivity” (PLoS ONE, 2015), this text covers Km and kcat for six molecules.

Data set [1] concerns the target T1, A. fulgidus RbcL2 (Archaeoglobus fulgidus, UniProt O28635).
T1 construct: gene rbcL; recombinant in E. coli BL-21(DE3) from pET11a, untagged, purified anaerobically to homogeneity; homodimer
T1 sequence (O28635 1-441): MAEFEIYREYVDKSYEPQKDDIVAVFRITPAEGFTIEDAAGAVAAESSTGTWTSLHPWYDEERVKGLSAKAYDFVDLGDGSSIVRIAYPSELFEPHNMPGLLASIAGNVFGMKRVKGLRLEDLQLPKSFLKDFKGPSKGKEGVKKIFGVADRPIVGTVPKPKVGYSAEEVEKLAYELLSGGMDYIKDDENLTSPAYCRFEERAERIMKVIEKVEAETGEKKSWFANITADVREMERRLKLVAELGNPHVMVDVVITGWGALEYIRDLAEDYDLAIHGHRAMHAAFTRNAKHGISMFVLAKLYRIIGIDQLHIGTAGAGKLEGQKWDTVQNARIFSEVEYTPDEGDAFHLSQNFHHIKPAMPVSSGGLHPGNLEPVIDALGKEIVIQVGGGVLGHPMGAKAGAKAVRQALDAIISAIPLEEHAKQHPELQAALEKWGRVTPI
Description: radiometric […]-bicarbonate carboxylase assay. Format: biochemical. The note with it: 83°C, pH 8.3, Mg2+, strictly anaerobic; value previously reported by same laboratory (ref 17), run in parallel; read-out: KRuBP ^a /; cited from earlier work.

In data set [2] the target is T2, A. fulgidus RbcL2 (Archaeoglobus fulgidus, UniProt O28635, M295D).
T2 construct: gene rbcL; recombinant in E. coli BL-21(DE3) from pET11a, untagged, purified anaerobically to homogeneity; homodimer
In words: radiometric […]-bicarbonate carboxylase assay. The class given is biochemical. The note with it: 83°C, pH 8.3, Mg2+, strictly anaerobic; value previously reported by same laboratory (ref 17), run in parallel; read-out: KRuBP ^a /; cited from earlier work.

Substrate in data set [3]: O=C(COP(=O)(O)O)[C@H](O)[C@H](O)COP(=O)(O)O
In words: purified protein. The class given is biochemical, Archaeoglobus fulgidus. The note with it: 83°C, pH 8.3, Mg2+, strictly anaerobic.

Substrate in data set [4]: O=C(COP(=O)(O)O)[C@H](O)[C@H](O)COP(=O)(O)O
In words: purified protein. The class given is biochemical, Thermococcus kodakarensis. The note with it: 83°C, pH 8.3, Mg2+, strictly anaerobic.

As usually defined, the kcat is the maximal rate divided by the concentration of active sites.

T2 sequence (O28635 whole entry M295D): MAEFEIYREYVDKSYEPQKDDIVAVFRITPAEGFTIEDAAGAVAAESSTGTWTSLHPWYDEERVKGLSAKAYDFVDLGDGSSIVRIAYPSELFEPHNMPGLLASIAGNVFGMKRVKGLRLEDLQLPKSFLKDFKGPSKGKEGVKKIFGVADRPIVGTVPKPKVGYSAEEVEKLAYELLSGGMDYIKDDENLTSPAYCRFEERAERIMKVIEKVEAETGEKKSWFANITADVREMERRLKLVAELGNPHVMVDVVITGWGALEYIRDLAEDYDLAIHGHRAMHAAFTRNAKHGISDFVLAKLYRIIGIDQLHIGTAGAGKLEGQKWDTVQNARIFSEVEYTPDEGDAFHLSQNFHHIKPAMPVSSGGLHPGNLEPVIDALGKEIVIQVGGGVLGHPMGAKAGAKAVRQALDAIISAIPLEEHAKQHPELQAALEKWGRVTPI

For the molecule `O=C(COP(=O)(O)O)[C@H](O)[C@H](O)COP(=O)(O)O` [RuBP], the Km is 20 ± 5 µM at A. fulgidus RbcL2 [1] and 21 ± 3 µM at A. fulgidus RbcL2 [2].

B1: A. fulgidus RbcL2 (Archaeoglobus fulgidus DSM 4304; S363I) (protein)
chain: MAEFEIYREYVDKSYEPQKDDIVAVFRITPAEGFTIEDAAGAVAAESSTGTWTSLHPWYDEERVKGLSAKAYDFVDLGDGSSIVRIAYPSELFEPHNMPGLLASIAGNVFGMKRVKGLRLEDLQLPKSFLKDFKGPSKGKEGVKKIFGVADRPIVGTVPKPKVGYSAEEVEKLAYELLSGGMDYIKDDENLTSPAYCRFEERAERIMKVIEKVEAETGEKKSWFANITADVREMERRLKLVAELGNPHVMVDVVITGWGALEYIRDLAEDYDLAIHGHRAMHAAFTRNAKHGISMFVLAKLYRIIGIDQLHIGTAGAGKLEGQKWDTVQNARIFSEVEYTPDEGDAFHLSQNFHHIKPAMPVISGGLHPGNLEPVIDALGKEIVIQVGGGVLGHPMGAKAGAKAVRQALDAIISAIPLEEHAKQHPELQAALEKWGRVTPI
notes: recombinant in E. coli BL-21(DE3) from pET11a, untagged, purified anaerobically to homogeneity; homodimer
B1: in the data set “purified protein [3]”, the Km worked out at 570 ± 94 µM and the kcat stood at 9.5 s⁻¹.

B2: A. fulgidus RbcL2 (Archaeoglobus fulgidus DSM 4304; M295D/S363I) (protein)
chain: MAEFEIYREYVDKSYEPQKDDIVAVFRITPAEGFTIEDAAGAVAAESSTGTWTSLHPWYDEERVKGLSAKAYDFVDLGDGSSIVRIAYPSELFEPHNMPGLLASIAGNVFGMKRVKGLRLEDLQLPKSFLKDFKGPSKGKEGVKKIFGVADRPIVGTVPKPKVGYSAEEVEKLAYELLSGGMDYIKDDENLTSPAYCRFEERAERIMKVIEKVEAETGEKKSWFANITADVREMERRLKLVAELGNPHVMVDVVITGWGALEYIRDLAEDYDLAIHGHRAMHAAFTRNAKHGISDFVLAKLYRIIGIDQLHIGTAGAGKLEGQKWDTVQNARIFSEVEYTPDEGDAFHLSQNFHHIKPAMPVISGGLHPGNLEPVIDALGKEIVIQVGGGVLGHPMGAKAGAKAVRQALDAIISAIPLEEHAKQHPELQAALEKWGRVTPI
notes: as for B1
Take B2: in the data set “purified protein [3]” (kcat determined at 4–6 x KRuBP), the Km worked out at 1646 ± 310 µM and the kcat amounted to 0.7 s⁻¹.

B3: A. fulgidus RbcL2 (Archaeoglobus fulgidus DSM 4304; M295D/S363V) (protein)
chain: MAEFEIYREYVDKSYEPQKDDIVAVFRITPAEGFTIEDAAGAVAAESSTGTWTSLHPWYDEERVKGLSAKAYDFVDLGDGSSIVRIAYPSELFEPHNMPGLLASIAGNVFGMKRVKGLRLEDLQLPKSFLKDFKGPSKGKEGVKKIFGVADRPIVGTVPKPKVGYSAEEVEKLAYELLSGGMDYIKDDENLTSPAYCRFEERAERIMKVIEKVEAETGEKKSWFANITADVREMERRLKLVAELGNPHVMVDVVITGWGALEYIRDLAEDYDLAIHGHRAMHAAFTRNAKHGISDFVLAKLYRIIGIDQLHIGTAGAGKLEGQKWDTVQNARIFSEVEYTPDEGDAFHLSQNFHHIKPAMPVVSGGLHPGNLEPVIDALGKEIVIQVGGGVLGHPMGAKAGAKAVRQALDAIISAIPLEEHAKQHPELQAALEKWGRVTPI
notes: as for B1
In the case of B3, in the data set “purified protein [3]” (kcat determined at 4–6 x KRuBP), the Km was found to be 1381 ± 88 µM and the kcat is 4.3 s⁻¹.

B4: A. fulgidus RbcL2 (Archaeoglobus fulgidus DSM 4304; S363V) (protein)
chain: MAEFEIYREYVDKSYEPQKDDIVAVFRITPAEGFTIEDAAGAVAAESSTGTWTSLHPWYDEERVKGLSAKAYDFVDLGDGSSIVRIAYPSELFEPHNMPGLLASIAGNVFGMKRVKGLRLEDLQLPKSFLKDFKGPSKGKEGVKKIFGVADRPIVGTVPKPKVGYSAEEVEKLAYELLSGGMDYIKDDENLTSPAYCRFEERAERIMKVIEKVEAETGEKKSWFANITADVREMERRLKLVAELGNPHVMVDVVITGWGALEYIRDLAEDYDLAIHGHRAMHAAFTRNAKHGISMFVLAKLYRIIGIDQLHIGTAGAGKLEGQKWDTVQNARIFSEVEYTPDEGDAFHLSQNFHHIKPAMPVVSGGLHPGNLEPVIDALGKEIVIQVGGGVLGHPMGAKAGAKAVRQALDAIISAIPLEEHAKQHPELQAALEKWGRVTPI
notes: as for B1
As for B4, in the data set “purified protein [3]” (kcat determined at 4–6 x KRuBP), the Km was 118 ± 6 µM and the kcat was 12.4 s⁻¹.

B5: T. kodakaraensis RbcL (Thermococcus kodakarensis KOD1) (protein)
chain: MVEKFDTIYDYYVDKGYEPSKKRDIIAVFRVTPAEGYTIEQAAGAVAAESSTGTWTTLYPWYEQERWADLSAKAYDFHDMGDGSWIVRIAYPFHAFEEANLPGLLASIAGNIFGMKRVKGLRLEDLYFPEKLIREFDGPAFGIEGVRKMLEIKDRPIYGVVPKPKVGYSPEEFEKLAYDLLSNGADYMKDDENLTSPWYNRFEERAEIMAKIIDKVENETGEKKTWFANITADLLEMEQRLEVLADLGLKHAMVDVVITGWGALRYIRDLAADYGLAIHGHRAMHAAFTRNPYHGISMFVLAKLYRLIGIDQLHVGTAGAGKLEGGKWDVIQNARILRESHYKPDENDVFHLEQKFYSIKAAFPTSSGGLHPGNIQPVIEALGTDIVLQLGGGTLGHPDGPAAGARAVRQAIDAIMQGIPLDEYAKTHKELARALEKWGHVTPV
notes: recombinant in E. coli BL-21(DE3) from pET11a, untagged, purified anaerobically to homogeneity; reported decamer
As for B5, in “purified protein [4]”, the Km came to 14 ± 2 µM and the kcat worked out at 16.6 s⁻¹.
